Changes are numbered by the printed parent chain. Read-outs that look alike come from different tables or passages of the source. Blank lines part the entries; values can stand above or below the binder they belong to.
Experiments:
TF/Factor VIIa complex [1] = molecular target: T1, TF/Factor VIIa complex (human, UniProt P13726 33-295; P08709 61-466); experiment: cell-based or functional assay
[2] = molecular target: T2, soluble human TF (human TF 1-219 with the FLAG peptide linked to the C-terminal) (human, UniProt P13726 33-251); experiment: BIACORE; antibody captured on Protein G chip, soluble TF as analyte; mean ± SD, n = 3
T2 construct: Entry is the whole soluble construct (TF 1-219 followed by FLAG peptide M2); also called soluble TF; shTF
Experimental: Kinetic analysis of the antigen-antibody reaction was carried out using BIACORE. The recombinant Protein G was immobilized on a sensor chip, to which the antibody was coupled. The purified recombinant TF (a soluble TF in which the FLAG peptide was tagged at 1-219) was used as the antigen, and the-soluble TF prepared at various concentrations were used as analytes. From the sensorgram obtained, kinetic parameters (dissociation rate constants kdiss, and binding rate constants kass) were calculated.
As the running buffer, the HBS-EP buffer was used. Ten μl Of […] antibody solution was injected at a flow rate of 20 μl/min to immobilize antibody. The antibody was diluted with the HBS-EP buffer. Forty μl Of the soluble human TF solution at various concentrations were injected at a flow rate of 30 μl/min thereto. In the analysis, 80 seconds for injection was set as the binding phase and then changed to the HBS-EP buffer to set the dissociation phase of 120 seconds. After the dissociation phase was over, 10 μl of 20 mM hydrochloric acid was injected to reconstitute the sensor chip. The binding, dissociation, and reconstitution were set as one cycle, and the sensorgram was obtained for each antibody. The soluble human TF solution was prepared at concentrations of 250 nM, 125 nM, 62.5 nM, 31.3 nM, 15.6 nM, 7.81 nM, and 3.91 nM using the HBS-EP buffer. As the blank, the sensorgram obtained by injecting the HBS-EP buffer used for dilution was used.
The data file of interest was read in, and the comparison of reaction patterns by superscription was made using as the baseline the sensorgram of the HBS-EP buffer. Furthermore, using an analytical application software "BIAevaluation 2.1" (Pharmacia) exclusively for BIACORE that calculates kinetic parameters (binding rate constants kass and dissociation rate constants kdiss) by curve-fitting, kinetic analysis of interaction was performed. In order to determine the binding rate constants kass, the analysis model type 4 was used (BIAevaluation 2.1 Software Hand book, A1-A5). Based on the values calculated from each flow cell, kinetic parameters for each antibody were obtained.

[3] = molecular target: T3, human tissue factor (TF) on human bladder carcinoma cells J82 (human, UniProt P13726 33-295); experiment: cell ELISA on paraformaldehyde-fixed J82 cells; AP-conjugated goat anti-human IgGγ; absorbance 405/655 nm
T3 construct: whole, on cells; also called the antigen; J82 cells
Experimental: (§1) Cell ELISA plates for measurement of antigen binding were prepared as follows. Cells used were human bladder carcinoma cells J82 (ATCC HTB-1). To 60 wells of a 96-well cell culture plate, 1 ×10^5 J82 cells were inoculated. This was cultured (RPMI1640 medium containing 10% fetal bovine serum (GIBCO)) for one day in a CO_2 incubator to allow the cells to be attached thereto. After discarding the culture liquid, each well was washed twice with 300 μl PBS. 100 μl of PBS containing 4% paraformaldehyde (hereinafter referred to as PFA/PBS) was added to each well, and placed on ice for 10 minutes to immobilize the cells.
(§2) PFA/PBS was discarded, and each well was washed twice with 300 μl of PBS, and then blocked with 250 μl of DB. The culture supernatant or purified antibody was serially diluted with DB, 100 μl of which was added to each well. After incubating at room temperature for 2 hours followed by washing with RB, 100 μl of alkaline phosphatase-conjugated goat anti-human IgGγ antibody (BioSource) diluted 1000-fold with DB was added. After incubating for 1 hour followed by washing with RB, the substrate solution was added, and then absorbance at 405/655 nm was measured using the Microplate Reader (Bio-Rad).

[4] = molecular target: T3, human tissue factor (TF) on human …; experiment: as above; remark: listed apart in the source
Experimental: as §1, §2

[5] = molecular target: T3, human tissue factor (TF) on human …; experiment: as above; remark: listed apart in the source
Experimental: as §1, §2

[6] = molecular target: T3, human tissue factor (TF) on human …; experiment: as above; remark: listed apart in the source
Experimental: as §1, §2

[7] = molecular target: T3, human tissue factor (TF) on human …; experiment: as above; remark: listed apart in the source
Experimental: as §1, §2

TF/Factor VIIa complex [8] = molecular target: T1, TF/Factor VIIa complex

T2 sequence (P13726 other isoform, or with tags, fused parts or gaps limits assumed): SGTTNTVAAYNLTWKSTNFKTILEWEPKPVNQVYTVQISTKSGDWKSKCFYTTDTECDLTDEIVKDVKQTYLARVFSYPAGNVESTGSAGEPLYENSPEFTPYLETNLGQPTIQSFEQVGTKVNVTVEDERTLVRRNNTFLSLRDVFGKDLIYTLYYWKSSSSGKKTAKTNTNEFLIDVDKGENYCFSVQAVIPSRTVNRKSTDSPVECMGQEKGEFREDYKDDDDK
T3 sequence (P13726 33-295): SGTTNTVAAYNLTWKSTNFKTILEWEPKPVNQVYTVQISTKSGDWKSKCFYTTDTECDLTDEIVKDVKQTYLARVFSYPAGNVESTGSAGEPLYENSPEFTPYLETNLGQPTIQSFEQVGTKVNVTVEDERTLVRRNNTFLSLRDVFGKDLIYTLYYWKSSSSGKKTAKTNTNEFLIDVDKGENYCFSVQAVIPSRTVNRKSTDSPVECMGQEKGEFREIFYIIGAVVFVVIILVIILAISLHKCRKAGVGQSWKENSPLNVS
T1 sequence (P13726 33-295 limits assumed, chain 1 of 2): as the sequence (P13726 33-295) above
T1 sequence (P08709 61-466 limits assumed, chain 2 of 2): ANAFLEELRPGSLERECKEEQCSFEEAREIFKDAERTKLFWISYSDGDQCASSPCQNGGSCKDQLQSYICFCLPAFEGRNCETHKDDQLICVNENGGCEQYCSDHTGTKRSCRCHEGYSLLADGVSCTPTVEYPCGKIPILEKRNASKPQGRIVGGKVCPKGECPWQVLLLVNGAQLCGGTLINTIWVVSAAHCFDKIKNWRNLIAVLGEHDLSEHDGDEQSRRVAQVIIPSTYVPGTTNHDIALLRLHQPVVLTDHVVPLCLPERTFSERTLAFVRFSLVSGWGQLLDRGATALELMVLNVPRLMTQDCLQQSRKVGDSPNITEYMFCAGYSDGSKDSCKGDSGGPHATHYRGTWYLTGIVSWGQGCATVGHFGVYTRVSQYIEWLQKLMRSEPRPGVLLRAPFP

B1: H chain chimeric/L chain chimeric antibody (chimeric ATR-5 antibody) (antibody, V domains shown)
VH: EVQLQQSGTNLVRPGALVKLSCKGSGFNIKDYYMHWVKQRPEQGLEWIGGNDPANGHSMYDPKFQGKASITADTSSNTAYLQLSSLTSEDTAVYFCARDSGYAMDYWGQGTSVTVSS
VL: DIKMTQSPSSMYASLGERVTITCKASQDIKSFLSWYQQKPWKSPKTLIYYATSLADGVPSRFSGSGSGQDYSLTINNLESDDTATYYCLQHGESPYTFGGGTKLEIK
notes: Mouse ATR-5 V regions joined to human C regions; Both an IgG1 (N5KG1(V)) and an IgG4 (N5KG4P) kappa form were made; also called ch-ch; cha-cha
IC50 (read off the curve) (TF/Factor VIIa complex [1]): ~0.2 µg/mL | Kd [2]: 1.09 nM | koff [2]: 0.000506 s⁻¹ | kon [2]: 465000 M⁻¹ s⁻¹ | EC50 (read off the curve) [3]: ~0.04 µg/mL | EC50 (read off the curve) [4]: ~0.05 µg/mL | EC50 (read off the curve) [5]: ~0.07 µg/mL | EC50 (read off the curve) [6]: ~0.08 µg/mL | EC50 (read off the curve) [7]: ~0.04 µg/mL

B2: H chain humanized version b/L chain humanized version b antibody (antibody, IgG4, V domains shown)
VH: QVQLLESGAVLARPGTSVKISCKASGFNIKDYYMHWVKQRPGQGLEWIGGNDPANGHSMYDPKFQGRVTITADTSTNTAYMELSSLRSEDTAIYYCARDSGYAMDYWGQGTLVTVSS
VL: DIQMTQSPSSLSASVGDRVTITCKASQDIKSFLSWYQQKPGKAPKLLIYYATSLADGVPSRFSGSGSGTDYTLTISSLQPEDFATYYCLQHGESPYTFGGGTKVEIK
notes: also called b-b; bb
IC50 (read off the curve) (TF/Factor VIIa complex [8]): 0.1 µg/mL | Kd [2]: 2.3 nM | koff [2]: 0.000952 s⁻¹ | kon [2]: 415000 M⁻¹ s⁻¹ | EC50 (read off the curve) [5]: ~0.07 µg/mL | EC50 (read off the curve) [7]: ~0.05 µg/mL

B5: H chain chimeric/L chain humanized version a antibody (antibody, IgG4, V domains shown)
VH: B1 VH
VL: B2 VL with Y71F
notes: H chain V region is that of mouse ATR-5
EC50 (read off the curve) [3]: ~0.03 µg/mL

The remaining lines, values ahead:

EC50 (read off the curve) [4]: ~0.03 µg/mL
B3: H chain humanized version a/L chain humanized version a antibody (antibody, IgG4, V domains shown)
VH: QVQLLESGAVLARPGTSVKISCKASGFNIKDYYMHWVKQRPGQGLEWIGGNDPANGHSMYDPKFQGRAKLTAATSASIAYLEFSSLTNEDSAVYYCARDSGYAMDYWGQGTLVTVSS
VL: B2 VL with Y71F

EC50 (read off the curve) [6]: ~0.07 µg/mL
B4: H chain chimeric/L chain humanized version c antibody (antibody, IgG4, V domains shown)
VH: B1 VH
VL: B2 VL with F83I
notes: H chain V region is that of mouse ATR-5; also called ch-c

EC50 (read off the curve) [7]: ~0.05 µg/mL
B6: H chain humanized version b/L chain humanized version c antibody (antibody, V domains shown)
VH: B2 VH
VL: B2 VL with F83I
notes: also called b-c

— patent US7494647 (Chugai, dated 2009)
